Data published in US6512102B1, “Compositions and methods of diagnosis and treatment using casein kinase I” (Chiron Corporation, priority 1998, dated 2003).
Residue numbers refer to the chain shown, from its start. Read-outs that look alike come from different tables or passages of the source.

Experiments:
[1] = test system: GSK3; test: In vitro kinase assay on GSK3; type: biochemical
Excerpt: B) Luciferase activity transduced by Dvl-1 was inhibited by CKI lys→arg 38. […] It was immunoprecipitated using anti-HA antibody and mixed with Immunoprecipitated GSK3.

[2] = biological target: T1, Axin (Homo sapiens, UniProt O15169); test: Co-immunoprecipitation with Axin in 293 cells; type: binding; conditions: both molecules co-expressed in 293 cells
T1 construct: expressed in transfected cells; host or cells: 293 cells
Experimental: Interaction of CKI with Axin When Axin was expressed in 293 cells, endogenous CKIε was found in the Axin immune-complex.
Cells were washed with PBS and lysed in buffer (20 mM Tris.HCl, pH 7.5/1 mM EDTA/0. 1% Triton X-100/[…]/1 mM phenylmethylsulfonyl fluoride/10 μg/ml each of aprotinin and leupeptin). For immunoprecipitation, cell lysates were incubated with various antibodies for 4 hours at 4° C., then added Dynabeads M-450 Sheep anti-Mouse IgG (Dynal Inc. #110.01). Enhance chemiluminescence reagents (Amersham Pharmacia Biotech) were used for detection of the immunoblots.

[3] = test system: Wnt pathway; test: Wnt pathway activation by CKI isoforms (ectopic axis in Xenopus embryos and Lef-1 reporter gene assay); type: cell-based
Experimental: There are seven mammalian CKI isoforms (α, β, γ1−3, δ and ε). All these isoforms contain a conserved serine-threonine kinase domain and various amino terminal and carboxyl terminal domains. CKIε and CKIδ the most closely related isoforms have a longer carboxy terminus compared to the other isoforms. […] The activation of the Wnt pathway was analyzed by induction of ectopic axis in Xenopus embryos and the Lef-1 reporter gene assay.
Lef-1 reporter assays were carried out as done as described in Sakanaka et al. (1998) Proc Natl Acad Sci USA. 95:3020-3. For example, 293 cells were seeded at 2×10^5 cells/well in 12-well culture plates. Cells were transfected with 0.2 μg of the luciferase reporter gene, 0.02 μg of Lef-1, 0.03 μg of pTK-β-gal as an internal control, the indicated amount of CKIε, Axin or Wnt-1 cDNA, and pcDNA3.1 vector to a total amount of 0.4 μg of plasmids. Transfection was performed by Lipofectamine (Lifetechnologies Inc. #18324012). Luciferase and β-gal activities were measured 48 h after transfection. Relative light units (RLU) were measured with a luminometer (Analytical Luminescence Laboratory, Monolight 2010).

[4] = test system: Arm (β-catenin); test: Arm (β-catenin) protein level in stable Drosophila Schneider cells, Western blot; type: cell-based; conditions: cells expressing CKIε, copper induction
Excerpt: Drosophila Schneider cell lines were derived that stably express CKIε in the presence or absence of Drosophila Sgg (GSK3) protein. CKIε and sgg (GSK3) gene expression were controlled by a metallothionein promoter which is induced by copper. […] In the cells expressing CKIε and Sgg (GSK3), Arm (β-catenin) protein level is reduced.
CKIε was PCR-cloned into a vector pRmHa-3 containing a copper-inducible promoter (metallothionine). It was co-transfected with pMKK3 containing the neo-gene (G418-resistant gene) into Drosophila Schneider cells. G418 was used for selection of a stable cell line. In addition, stable cell lines containing combinations of CKIε+wt sgg, CKIε+Actsgg, CKIKD, CKIKD+DN Sgg were made. Actsgg is a mutant containing a mutation of Ser9 to Ala. To detect stabilized Arm, cells were plated 16 hours before the copper induction and lysed three hours after the copper induction. Western blots were performed with anti-Arm mAb 7A12.

[5] = test system: Lef-1 dependent transcription; test: Lef-1 enhancer luciferase reporter assay in Cos cells; type: cell-based; conditions: for luciferase activity induced: cotransfected with Lef-1, Cos cells; for Wnt signal transduction (Lef-luciferase): variant co-transfected with Wnt-1; for signal transduced by dominant negative GSK3 (DNGSK3): variant co-transfected with dominant negative GSK3 and Lef-1; for luciferase activity transduced by Dvl-1: variant with Dvl-1
Experimental: (§1) Combinations of Wnt-1, CKIε, CKI kinase dead variant (lys→arg 38) and Lef-1 were transfected into Cos cells with a luciferase gene driven by multiple copies of Lef enhancer elements. As an internal control of transfection efficiency, the β-galactosidase gene driven by the SV40 promoter was co-transfected in all samples. 24 hours after transfection, cells were lysed and the lysate was tested for luciferase activity. The luciferase activity was normalized with respect to β-galactosidase activity. […] Dorsoanterior index (DAI) grade numbers were assigned to the phenotypes of the embryos. A grade 5 embryo is normal; a grade 3 embryo is cyclopic (one eye); a grade 1 embryo has a tail fin and somites but no head (acephalic); and a grade 0 embryo has no dorsoanterior structures (Kao et al., 1988).
The effect of CKI on Lef-1 dependent transcription in Cos mammalian cells was examined. A luciferase reporter gene driven by multiple copies of the Lef-I enhancer sequence was used. When only Wnt-I or lef-I or CKIε was transfected with the reporter construct, luciferase activity was induced only 2 to 3 fold (FIG. 1A). When Lef-1 was cotransfected with either Wnt-1 or CKIε, luciferase activity was induced 30 or 12 fold respectively.
Luciferase reporter plasmid contains multiple Lef-I enhancer sites upstream of the fos basal promoter. Various DNA plasmids encoding Wnt-1, CKIε , Dvl-1, GSK3 etc. were co-transfected with a luciferase reporter plasmid and a SV40 β-galactosidase plasmid into 24-well Cos cell culture. For each well, 0.5 μg total DNA was in a ratio of 0.08 μg:016 μg:0.02 μg for signaling molecules:luciferase: β-gal. SV40 β-gal construct was used as an internal transfection control, since β-gal activity is independent of the Wnt-1 signaling molecules. Transfection was done using LT1 (5 μl/μg DNA) (Panvera Co. # MIR23 10). Each sample was transfected in triplex repeats to obtain a statistical value. After 24 hours, cells were washed once with PBS and lysed in 50 μl/well lysis buffer supplied with the luciferase assay kit (Promega cat# EI500). 10 μl of each sample was aliquoted into two sets of tubes, one set for the luciferase assay and another for β-gal chemiluminescent reporter assay (Galacto-Light, TROPIX Inc. #BL100G). The result of the luciferase assay was divided by the corresponding β-gal activity, and then averaged.

[6] = test system: ventralized Xenopus embryo; test: Rescue of dorsal structure of ventralized Xenopus embryos by injected RNA; type: in vivo; conditions: RNA injected into ventralized embryos
Experimental: as §1
Furthermore, when the variant was co-transfected with CKIε into Cos cells, Lef-1-dependent luciferase activity was inhibited. […] Thus, the variant interferes with Wnt signaling, acting as a dominant negative.

[7] = test system: casein; test: Kinase activity of construct transfected into Cos cells, casein as substrate; type: biochemical; conditions: substrate casein protein
Experimental: It was transiently transfected into Cos cells and its activity was tested using substrate casein protein.

[8] = test system: Lef-1 reporter gene activity; test: Lef-1 reporter gene assay in 293 cells after antisense transfection; type: cell-based; conditions: Wnt-1 expressed in 293 cells
Experimental: FIGS. 4A-C Lef-1 reporter gene activity induced by Wnt (A), Dv1-3 (B), or mutant β-catenin (C) is inhibited by CKIε antisense polynucleotides (CKI-a and CKI-b), but not by the reverse sequence control (RC). 293 cells were plated at a density of 1.5*10^5 cells per 12-well dish 16 hours prior to transfection 6 ul 0.5 mM cationic lipitoid and 2 ul 100 uM polynucleotide in 50 ul opti-MEM (Life Technologies) was mixed together and added dropwise to cells in 1 ml of fresh media. After 24 hours cells, cells were washed with opti-MEM and transfected with luciferase reporter plasmids (0.02 mg lef-1, 0.2 lef-1 reporter, 0.03 mg renilla luciferase) control using lipofectamine (Life Technologies). Cells were assayed for luciferase activity 48 hours after transfection of antisense polynucleotides.
One method for measuring activation of gene expression by the Wnt pathway is to use the Lef-1 reporter gene assay. Antisense polynucleotides were transfected into cells by using cationic peptoid reagents followed by transfection with Lef-1, Lef-1 reporter, and Wnt-1 plasmids using lipofectamine (Life Technologies). Lef-1 reporter gene activity was measured using the Dual-Luciferase Reporter Assay System (Promega) according to the manufacturers specifications. […]

T1 sequence (O15169 whole entry, species assumed): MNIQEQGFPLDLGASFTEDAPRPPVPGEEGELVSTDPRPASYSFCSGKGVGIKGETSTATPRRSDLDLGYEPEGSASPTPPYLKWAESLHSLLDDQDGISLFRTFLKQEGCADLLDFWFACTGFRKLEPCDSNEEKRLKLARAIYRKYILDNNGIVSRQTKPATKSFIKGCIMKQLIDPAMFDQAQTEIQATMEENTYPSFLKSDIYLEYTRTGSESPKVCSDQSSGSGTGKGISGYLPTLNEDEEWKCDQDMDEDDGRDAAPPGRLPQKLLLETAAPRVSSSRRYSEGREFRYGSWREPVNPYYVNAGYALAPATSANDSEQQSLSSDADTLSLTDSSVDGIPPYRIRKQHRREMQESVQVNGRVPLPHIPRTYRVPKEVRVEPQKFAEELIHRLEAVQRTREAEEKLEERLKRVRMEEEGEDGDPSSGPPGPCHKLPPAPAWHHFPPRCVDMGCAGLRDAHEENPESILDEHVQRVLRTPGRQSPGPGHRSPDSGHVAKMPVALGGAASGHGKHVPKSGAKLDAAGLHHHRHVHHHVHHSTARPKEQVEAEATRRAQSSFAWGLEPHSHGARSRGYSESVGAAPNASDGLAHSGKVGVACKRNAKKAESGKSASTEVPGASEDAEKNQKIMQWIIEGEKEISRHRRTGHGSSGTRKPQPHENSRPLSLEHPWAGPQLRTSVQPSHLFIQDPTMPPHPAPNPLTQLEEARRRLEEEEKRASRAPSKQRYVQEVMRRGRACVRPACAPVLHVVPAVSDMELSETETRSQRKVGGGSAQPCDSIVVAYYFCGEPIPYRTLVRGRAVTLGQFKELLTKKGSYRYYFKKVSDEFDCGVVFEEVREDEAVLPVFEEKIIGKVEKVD

B1: CKIεΔ: truncated CKIε mutant where the C-terminus was deleted (protein)
chain: MELRVGNKYRLGRKIGSGSFGDIYLGANIASGEEVAIKLECVKTKHPQLHIESKFYKMMQGGVGIPSIKWCGAEGDYNVMVMELLGPSLEDLFNFCSRKFSLKTVLLLADQMISRIEYIHSKNFIHRDVKPDNFLMGLGKKGNLVYIIDFGLAKKYRDARTHQHIPYRENKNLTGTARYASINTHLGIEQSRRDDLESLGYVLMYFNLGSLPWQGLKAATKRQKYERISEKKMSTPIEVLCKGYPSEFSTYLNFCRSLRFDDKPDYSYLRQLFRNLFHRQGFSYDYVFDWNMLKFGAARNPED
modifications: left off: small tags and cut ends
notes: truncated CKIε mutant where the C-terminus was deleted
kinase activity of C-terminally truncated mutant [1]: intact kinase activity | kinase activity of C-terminally truncated mutant ([1]; listed as C-terminally truncated CKIε): has kinase activity | Axin binding [2]: bound less Axin | activation of the Wnt pathway [3]: fails to activate the Wnt pathway

B2: CKIε: mouse casein kinase I ε, SEQ ID NO:1, 416 amino acids, 98.9% identical to human CKIε; expressed from transfected cDNA (protein)
chain: MELRVGNKYRLGRKIGSGSFGDIYLGANIASGEEVAIKLECVKTKHPQLHIESKFYKMMQGGVGIPSIKWCGAEGDYNVMVMELLGPSLEDLFNFCSRKFSLKTVLLLADQMISRIEYIHSKNFIHRDVKPDNFLMGLGKKGNLVYIIDFGLAKKYRDARTHQHIPYRENKNLTGTARYASINTHLGIEQSRRDDLESLGYVLMYFNLGSLPWQGLKAATKRQKYERISEKKMSTPIEVLCKGYPSEFSTYLNFCRSLRFDDKPDYSYLRQLFRNLFHRQGFSYDYVFDWNMLKFGAARNPEDVDRERREHEREERMGQLRGSATRALPPGPPTGATANRLRSAAEPVASTPASRIQQTGNTSPRAISRADRERKVSMRLHRGAPANVSSSDLTGRQEVSRLAASQTSVPFDHLGK
modifications: HA tag; Mus Casein Kinase I epsilon
notes: expressed from transfected cDNA
Arm (β-catenin) protein level [4]: significantly higher than background | phosphorylation of GSK3 ([1]; in vitro): phosphorylated purified GSK3 protein as well as immunoprecipitated GSK3 protein | activation of the Wnt pathway [3]: activate the Wnt pathway | induction of transcription ([5]; Wnt-I and CKI without lef-I): did not induce the transcription | luciferase activity induced [5]: 12 fold

B3: CKI lys→arg 38: kinase-inactive CKIε construct in which lysine 38 in the kinase domain was mutated to arginine (protein)
chain: B2 chain with K38R
modifications: Mus Casein Kinase I epsilon
rescue of embryonic dorsal structure [6]: failed to do so | Lef-1-dependent luciferase activity ([5]; variant co-transfected with CKIε): inhibited | Wnt signal transduction (Lef-luciferase) [5]: blocked the Wnt signal transduction in a dose-dependent manner | Wnt signal transduction (Lef-luciferase) ([5]; listed as CKIKD): inhibits Wnt signaling | signal transduced by dominant negative GSK3 (DNGSK3) [5]: did not inhibit the signal | signal transduced by dominant negative GSK3 (DNGSK3) ([5]; listed as variant): did not reduce the signal | luciferase activity transduced by Dvl-1 [5]: inhibited | luciferase activity transduced by Dvl-1 ([5]; listed as variant): inhibited the effect of Dv1-1 on luciferase activity | kinase activity [7]: no detectable kinase activity

B4: Wnt-1: Wnt-1 expressed from transfected plasmid (protein, UniProt P04628 28-370, looked up)
Proto-oncogene Wnt-1: ANSSGRWWGIVNVASSTNLLTDSKSLQLVLEPSLQLLSRKQRRLIRQNPGILHSVSGGLQSAVRECKWQFRNRRWNCPTAPGPHLFGKIVNRGCRETAFIFAITSAGVTHSVARSCSEGSIESCTCDYRRRGPGGPDWHWGGCSDNIDFGRLFGREFVDSGEKGRDLRFLMNLHNNEAGRTTVFSEMRQECKCHGMSGSCTVRTCWMRLPTLRAVGDVLRDRFDGASRVLYGNRGSNRASRAELLRLEPEDPAHKPPSPHDLVYFEKSPNFCTYSGRLGTAGTAGRACNSSSPALDGCELLCCGRGHRTRTQRVTERCNCTFHWCCHVSCRNCTHTRVLHECL
stimulation of Lef-1 reporter gene transcription over vector transfected cells [8]: 4-6 fold | luciferase activity induced [5]: 30 fold
